Results as given in article PMC4944837 (Molecular cell, 2007).
Where two headings read alike, the source gives them in different places.

T1: GST-Rb pocket (aa 379-792) (human, UniProt P06400 379-792)
T1 sequence (looked up): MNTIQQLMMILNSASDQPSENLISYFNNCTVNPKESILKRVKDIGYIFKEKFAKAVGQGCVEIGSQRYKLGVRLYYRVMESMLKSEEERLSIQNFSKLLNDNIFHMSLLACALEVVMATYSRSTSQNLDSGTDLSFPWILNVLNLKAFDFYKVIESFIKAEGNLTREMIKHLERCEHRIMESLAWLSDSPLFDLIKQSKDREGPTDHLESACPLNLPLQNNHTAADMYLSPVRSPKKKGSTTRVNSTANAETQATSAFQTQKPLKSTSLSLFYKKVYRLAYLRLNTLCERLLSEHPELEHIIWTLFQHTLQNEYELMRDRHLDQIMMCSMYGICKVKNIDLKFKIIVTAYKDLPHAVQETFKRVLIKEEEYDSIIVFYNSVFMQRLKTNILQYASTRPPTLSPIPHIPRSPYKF

T2: GST-Rb∆N (aa 379-928) (human, UniProt P06400 379-928)
T2 sequence (looked up): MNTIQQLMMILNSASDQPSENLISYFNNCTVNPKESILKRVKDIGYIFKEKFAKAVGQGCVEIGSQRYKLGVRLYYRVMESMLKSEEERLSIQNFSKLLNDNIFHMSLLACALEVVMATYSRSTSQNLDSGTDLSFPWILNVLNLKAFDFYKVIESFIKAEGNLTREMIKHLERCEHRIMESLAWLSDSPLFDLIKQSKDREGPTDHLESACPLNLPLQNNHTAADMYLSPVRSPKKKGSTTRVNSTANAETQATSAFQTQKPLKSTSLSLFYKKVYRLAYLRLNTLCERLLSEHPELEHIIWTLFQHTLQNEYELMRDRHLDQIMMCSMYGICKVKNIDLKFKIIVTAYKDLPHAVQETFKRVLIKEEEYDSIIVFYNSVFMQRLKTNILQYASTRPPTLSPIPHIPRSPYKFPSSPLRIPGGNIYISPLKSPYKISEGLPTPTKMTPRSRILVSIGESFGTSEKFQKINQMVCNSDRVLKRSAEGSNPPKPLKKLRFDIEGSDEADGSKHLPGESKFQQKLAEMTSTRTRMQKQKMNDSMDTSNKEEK

B1: RbN (aa 40-355), Rb N-terminal domain (domain or fragment, human, UniProt P06400 40-355, looked up)
chain: EDLPLVRLEFEETEEPDFTALCQKLKIPDHVRERAWLTWEKVSSVDGVLGGYIQKKKELWGICIFIAAVDLDEMSFTFTELQKNIEISVHKFFNLLKEIDTSTKVDNAMSRLLKKYDVLFALFSKLERTCELIYLTQPSSSISTEINSALVLKVSWITFLLAKGEVLQMEDDLVISFQLMLCVLDYFIKLSPPMLLKEPYKTAVIPINGSPRTPRRGQNRSARIAKQLENDTRIIEVLCKEHECNIDEVKNVYFKNFIPFMNSLGLVTSNGLPEVENLSKRYEEIYLKNKDLDARLFLDHDKTLQTDSIDSFETQR
B2: Rb 40-355 ∆Ex5 (domain or fragment, human, UniProt P06400 40-355, looked up)
chain: EDLPLVRLEFEETEEPDFTALCQKLKIPDHVRERAWLTWEKVSSVDGVLGGYIQKKKELWGICIFIAAVDLDEMSFTFTELQKNIEISVHKFFNLLKEIDTSTKVDNAMSRLLKKYDVLFALFSKLERSTEINSALVLKVSWITFLLAKGEVLQMEDDLVISFQLMLCVLDYFIKLSPPMLLKEPYKTAVIPINGSPRTPRRGQNRSARIAKQLENDTRIIEVLCKEHECNIDEVKNVYFKNFIPFMNSLGLVTSNGLPEVENLSKRYEEIYLKNKDLDARLFLDHDKTLQTDSIDSFETQR

What was measured:
Assay in all cases: pull-down
[1] = target: T1, GST-Rb pocket (aa 379-792)
[2] = target: T1, GST-Rb pocket (aa 379-792); remark: listed apart in the source
GST-Rb∆N (aa 379-928) = target: T2, GST-Rb∆N (aa 379-928)

| Binder | binding result [1] | binding result [2] | binding result (GST-Rb∆N (aa 379-928)) |
| --- | --- | --- | --- |
| NRLTEELGCDEIIDRE (peptide, UniProt Q9Y6B2 172-187, looked up) [EID-1 LxCxE peptide (aa 172-187, LxCxE)] | binds | – | – |
| B1 | – | binds | binds |
| B2 | – | binds | – |
